Source: publication PMC9900762

Molecular target: P. falciparum cytochrome c-2 (PF3D7_1311700), recombinant (P. falciparum) (UniProt Q8I6T6)
Assay: crystal structure

P. falciparum cytochrome c-2 (PF3D7_1311700), recombinant (from UniProt Q8I6T6 1-159) (natural protein)
stoichiometry N: 2
